assay: yeast display, Sf9 membrane polyspecificity reagent, FACS + sequencing; frameworks hold sequencing errors
Summary of the method: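 Genes from sorted yeast were amplified by colony PCR, read by MiSeq 2 × 250 sequencing and filtered on CDR length. These cells carried a synthetic nanobody library in Saccharomyces cerevisiae BJ5465 and were sorted by FACS into low and high (top ~1%) gates on anti-HA and streptavidin fluorescence. Polyreactivity is labelled according to the gate of origin.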

Sequence	polyreactivity (PSR sort gate)
QVQLVESGGGLVQAGGSLRLSCAASGRTFGRYAMGWYRQAPGKESELVAAISWTGGRTYYADSVKGRFTISRDNAKNTVYLQMNSLKPEDTAVYYGAALYDRIPAASRGYDSWGQVTQVTVSS	high polyreactivity
QVQLVESGGGLVQAGGSLRLSCAASGRTFGRYTMGLYRQAPGKERELVAAITYSGGSTYYADSVKGRFTISRDNAKNTVYFQMNSLKPVDTAVYYCADEWGYDWYRYGYWGQGTQVTVSS	low polyreactivity
QVQLVESGGGLVQAGGSLRLSCAASGRTFGRYVMGWYIQAPGKERELVAAIRWSGGTTYYADSVKGRFTISRDNAKNTVYLQMNSLKPEDTAVYYCAARWGPYYGGVRYGYWGQGTQVTVSS	high polyreactivity
QVQLVESGGGLVQAGGSLRLSCAASGRTFGSNAMGWYRQAPGKERELVAAISGRTDSTYYADSVKGRFTISRDNAKNTVYLQMNSLKPEDTAVFYCAADSGDVLYYYIRYNYWGQGTQVTVSS	low polyreactivity
QVQLVESGGGLVQAGGSLRLSCAASGRTFGSNAMGWYRQAPGKERELVAAISSSDSTNYADSVKGRFTISRDNAKNTVYLQMNSLKPEDTAVYYCNAGHPVRSPGYDYWGQGTQVTVSS	low polyreactivity
QVQLVESGGGLVQAGGSLRLSCAASGRTFGSNTMGWYRQAPGKERELVAAISGTGTSTYYADSVKGRFTISRDNAKNTVYLQMNSLKPEDTAVYYCAAGWYKYLFQPHDYWGQGTQVTVSS	low polyreactivity
QVQLVESGGGLVQAGGSLRLSCAASGRTFGSYAMGWYRQAPGKERELVAAITWSGGITYFADSVKGRFTISRDNAKNTVYLKMNSLKPEDTAVYYCNVYVSAGEEDEYWGQGTQVTVSS	low polyreactivity
QVQLVESGGGLVQAGGSLRLSCAASGRTFGSYAMGWYRQAPGTERELVAAITWSGTGTYYADSVKGRFTISRDKAKNTVYLQMHSLKPEDTAVYYCNTDRWYAYDWGQGTQVTVSS	high polyreactivity
QVQLVESGGGLVQAGGSLRLSCAASGRTFGTNAMGWYRPAPGKERELVAAISWRGTSTYYADSVKGRFTISRDNAKNTVYLQMNILKPEVTAVYYCAADFSYTSYATRYQGDYWGQGTQVTVSS	low polyreactivity
QVQLVESGGGLVQAGGSLRLSCAASGRTFGTNAMGWYRQAPGKERELVAAISRRGGSTYYADSVKGRFTISRDNAKNTVYLQMNSLKPEDTAVYYCAKTIGLKHEDEYWGQGTQVTVSS	low polyreactivity
QVQLVESGGGLVQAGGSLRLSCAASGRTFGTNAMVWYRQAPGKERELVAAITWRGGSTSYADSVKGRFTISRDNAKNTVYLQMNSLKPEDSAVYYCAVRLRYPGNTFYYWGQGTQVTVSS	high polyreactivity
QVQLVESGGGLVQAGGSLRLSCAASGRTFGTNGMGWYRQAPGKERELVAVITWTGGSTYYADSVKGRFTISRDNAKNTVYLQMNSLKPEDTAVYYCAAKYSHLGYNYWGQGTQVTVSS	high polyreactivity
QVQLVESGGGLVQAGGSLRLSCAASGRTFGTYAMGWYRQAPGKERELVAAISSGGSTYADSVKGRFTISRDNAKNTVYLQRNSLTPEETAVYYCNADFRARNYHYYPRRFKYYYWGQGTQVTVSS	high polyreactivity
QVQLVESGGGLVQAGGSLRLSCAASGRTFGTYAMGWYRQAPGKQRELVAAISSGGSTYADSVKGRFTISRDNAKNTVYLQMNSLKPEDTAVYYCNADYRARNYHYYPRRFKYYYWGQGTQVTVSS	high polyreactivity
QVQLVESGGGLVQAGGSLRLSCAASGRTFGVNTMGWYRQAPGKERELVASISTSGGSTYADSVKGRFTISRDNAKNTVYLQMISLKPEDTAVYYCARTYYWYLRVDYWGQGTQVTVSS	low polyreactivity
QVQLVESGGGLVQAGGSLRLSCAASGRTFGVYAMGWYRQAPGKDSELVEAINNGGSTNYADSVKGRFTISRDNAKNTVYLQINSLKPEDTAVYNCNAVVGYRHWPYYRGEYDYWGQGTQVTVSS	low polyreactivity
QVQLVESGGGLVQAGGSLRLSCAASGRTFGVYAMGWYRQAPGKERELVAAIRWSGGGTYYADSVKGRFTISRDNAKNTVYLQMNSLKPEDTAVYYCNAEIWTEGGYWGQGTQVTVSS	low polyreactivity
QVQLVESGGGLVQAGGSLRLSCAASGRTFGWKARGWYRQAPGKEMELVAAISWSGTNTYDADSVKGRFTISRDNAKNTVYLQMNSLKPEDTAVYYCAARDWTGSWNGYWSWEYNYWGQGTQVTVSS	low polyreactivity
QVQLVESGGGLVQAGGSLRLSCAASGRTFGWSAMGWYRQAPGKERELVAAISSSGGSTYYADSVKGRFTISRDNAKNTVYLQMNSLKPEDTAVYYCAKESYRGGFDYWGQGTQVTVSS	high polyreactivity
QVQLVESGGGLVQAGGSLRLSCAASGRTFGWYDMGWYRQAPGKERELVAAISWSGSSTYYADSVKGRFTISRDNAKNTVYLQMNSLKPEDNAVYYFNDVIRSDLFSYLDGRYDYWGQGTQVTVSS	high polyreactivity
QVQLVESGGGLVQAGGSLRLSCAASGRTFGYNAMGWYREAPGKERELVAAITLGGITHYADSVKGRFTISRDNAKNTVYLQMNSLKPEDTAVYYCAKRGPYYNDDEYYWGQGTQVTVSS	low polyreactivity
QVQLVESGGGLVQAGGSLRLSCAASGRTFGYNAMGWYRQAPGKERELVAAIRTIGDSTYYADSVKGRFTISRDNAKNSVYLQMNSLKPEDTAVYYCAARKLRSRYDYWGQGTQVTVSS	high polyreactivity

Sequence	polyreactivity (PSR sort gate)
QVQLVESGGGLVQAGGSLRLSCAASGRTFGYNAMGWYRQAPGKERQFVAAISWSGGRTYYADSVKGRFTISRDNAKNTVYLQMNSLKPEDTAVYYCAAAAPHLSAKMDYWGQGTQVTVSS	low polyreactivity
QVQLVESGGGLVQAGGSLRLSCAASGRTFGYNAMGWYSQAPGKERELVAAISRSGGRTYYADSVKGRFTISRDNAKNTVYLQMNSLKPEDTAVYYCAAESYHRGYDYWGQGTQVTLSS	high polyreactivity
QVQLVESGGGLVQAGGSLRLSCAASGRTFGYNVMGWYRQAPGKERELVAAISSGGNTYYADSVKGRFTISRDNAKNTVYLQMNSLKPEDTAVYYCNARQYRYLSDRMNYWGQGTQVTVSS	low polyreactivity
QVQLVESGGGLVQAGGSLRLSCAASGRTFGYNVMGWYRQAPGKERELVAVINGRGGSTYYADSVKGRFTISRDNAKNTVYLQMNSLKPEDTAVYYCNVVSGGYFEYDYWGQGTQVTVSS	high polyreactivity
QVQLVESGGGLVQAGGSLRLSCAASGRTFGYYAMGWYRQAPGKERELVAAINWRGDSTYYADSVKGRFTISRDNAKNTVYLQMNSLKPEDTAVYYCAALVRGYDRSIRMDYWGQGTQVTVSS	high polyreactivity
QVQLVESGGGLVQAGGSLRLSCAASGRTFGYYAMGWYRQAPGKERELVAAISSGGGTYYADSVKGRFTISRDNAKNTVYLLMNSLKPEDTAVYYCAATGWVYWGQFDYWGQGTQVTVSS	low polyreactivity
QVQLVESGGGLVQAGGSLRLSCAASGRTFGYYAMGWYRQAPGKERELVAAISTRSGSTYYADSVKGRFTISRDNAKNTVYLQMNSLKPEDTAVYYCAADSYPDYDYWGQGTQVTVSS	low polyreactivity
QVQLVESGGGLVQAGGSLRLSCAASGRTFGYYAMGWYRQAPGKERELVAAITDSGDITYYADSVKGRFTISRDNAKNTVYLQMNSLKPEDTAVYYCAADSYEFWSEVYTGESWGQGTQVTVSS	low polyreactivity
QVQLVESGGGLVQAGGSLRLSCAASGRTFGYYAMGWYRQAPGKERELVAAITGSGGSTYYADSVKGRFTISRDNAKNTVYLQMNSLKPEDTAVYYCAVESVRTRGWIRLDYWGQGTQVTVSS	high polyreactivity
QVQLVESGGGLVQAGGSLRLSCAASGRTFGYYAMGWYRQAPGKERELVASITTGGSTDYADSVKGRFTISRDNAKNTVYLQMNSLKPEDTAVYYCAAKPNPYTKARYYYWGQGTQVTVSS	high polyreactivity
QVQLVESGGGLVQAGGSLRLSCAASGRTFGYYGLGWSRQAPGKERELVAAITGSGGSTYYADSVKGRFTISRDNAKNTVYLQMNSLKPEDTAVYYCNTARRHGQTQGGDYWGQGTQVTVSS	high polyreactivity
QVQLVESGGGLVQAGGSLRLSCAASGRTFGYYVMGCYRQAPGKERELVAAISASGGSTYYADSVKGRFTISRDNAKNTVYLQMNSLKPEDTAVYYCNADYLSQPDWYYFYLFDYWGQGTQVTVSS	high polyreactivity
QVQLVESGGGLVQAGGSLRLSCAASGRTFHAYAMGWSRQAPGKGRELVAAITRTGTTHYADSVKGRFTISRDNAKNTVYLQMNSLKPEDTAVYYCAAQHVRVDAQFVLQGYDYWGQGTQVTVSS	low polyreactivity
QVQLVESGGGLVQAGGSLRLSCAASGRTFHDYAMGWYRQAPGKERELVASISSGGSTYYADSVKGRFTISRDNAKNTVYLQMNSLKPEDTAVYYCAAYYYSTLYYRYDYWGQGTQVTVSS	low polyreactivity
QVQLVESGGGLVQAGGSLRLSCAASGRTFHGYGMGWYRQAPGKERELVAAISWSGGSTYYADSVKGRFTISRDNAKNTVYLHMNSLKAEDTAVYYCAADVYRYWISEYDDYWGQGTQVTVSS	low polyreactivity
QVQLVESGGGLVQAGGSLRLSCAASGRTFHHNTMGWYRQAPGKERELVAAISSGGSTNYADSVKGRFTISRDNAKNTVYLQMNSLKPEDTAVYYCNADGGFLQRTGYDYWGQGTQVTVSS	low polyreactivity
QVQLVESGGGLVQAGGSLRLSCAASGRTFHIYAMGWYRQAPGKERELLAAINYSGGSTYYADSVKGRFTISRDNAKNSVYLQMNSLKPEDTAVLYCAAVVYNVPWWFEYDYWGQGTQVTVSS	low polyreactivity
QVQLVESGGGLVQAGGSLRLSCAASGRTFHPYAMGWYRQAPGKERELVAAITISTNYADSVKGRFTISRDNAKNTVYLQMNSLKPEDTAVYYCNKDGTHEVYVGGYEDDYWGQGTQVTVSS	low polyreactivity
QVQLVESGGGLVQAGGSLRLSCAASGRTFHRYVMGWYRQAPGKERELVAAITSGGRTTYADSVKGRFTISRDNAKNTVYLQMNSLKPEDTAVYYCAAELTVRGTWVQQRTFRYDYWGQGTQVTVSS	low polyreactivity
QVQLVESGGGLVQAGGSLRLSCAASGRTFHSYAMGWYRQAPGKERELVAAINNGGGTYYADSVKGRFTISRDNAKNTVYLQMNSLKPEDTAVYYCAADRYRYRYNAPRYAYDYWGQGTQVTVSS	high polyreactivity
QVQLVESGGGLVQAGGSLRLSCAASGRTFHYYAMGWYRQAPGKERELVAAISSTGGSTYYADSVKGRFTISRDNAKHPVYVQMNSLKPADTAVYSCAARQFGYYHVRNEYWGQGTQVTVSS	high polyreactivity
